Patent US7151087 (US Dept. of Health and Human Services, dated 2006)

B1: MIP-1α (ligand, human, UniProt P10147 23-92, looked up)
chain: ASLAADTPTACCFSYTSRQIPQNFIADYFETSSQCSKPGVIFLTKRSRQVCADPSEEWVQKYVSDLELSA
notes: also called unlabeled MIP-1α
B4: MIP-1β (ligand, human, UniProt P13236 24-92, looked up)
chain: APMGSDPPTACCFSYTARKLPRNFVVDYYETSSLCSQPAVVFQTKRSKQVCADPSESWVQEYVYDLELN
B5: RANTES (ligand, human, UniProt P13501 24-91, looked up)
chain: SPYSSDTTPCCFAYIARPLPRAHIKEYFYTSGKCSNPAVVFVTRKNRQVCANPEKKWVREYINSLEMS
notes: also called unlabeled RANTES

Experiments:
[1] = molecular target: T1, CC chemokine receptor 5 (CCR5), clone 8.5 cDNA, stably expressed on HEK 293 cells (human, UniProt P51681 1-352); assay: homologous competition against ^125I-MIP-1α on CCR5.1 cells
T1 construct: also called CC CKR5; CCR5 transfectants
T1 sequence (P51681 whole entry): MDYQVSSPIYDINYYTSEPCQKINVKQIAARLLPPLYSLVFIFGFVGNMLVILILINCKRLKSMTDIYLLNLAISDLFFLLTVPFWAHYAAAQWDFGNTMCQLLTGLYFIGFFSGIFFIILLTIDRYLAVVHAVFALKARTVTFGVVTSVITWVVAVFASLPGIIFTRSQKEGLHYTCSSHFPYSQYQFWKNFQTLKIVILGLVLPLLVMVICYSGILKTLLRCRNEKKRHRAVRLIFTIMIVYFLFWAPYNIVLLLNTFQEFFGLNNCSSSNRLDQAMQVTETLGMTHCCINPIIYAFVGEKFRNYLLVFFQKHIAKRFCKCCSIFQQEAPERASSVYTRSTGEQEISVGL

[2] = molecular target: T2, CC CKR1, stably expressed on HEK 293 cells (Homo sapiens (Human), UniProt P32246 1-355); assay: homologous competition against ^125I-MIP-1α on CC CKR1-transfected HEK 293 cells, 4° C.
T2 construct: also called CC CKLR1
T2 sequence: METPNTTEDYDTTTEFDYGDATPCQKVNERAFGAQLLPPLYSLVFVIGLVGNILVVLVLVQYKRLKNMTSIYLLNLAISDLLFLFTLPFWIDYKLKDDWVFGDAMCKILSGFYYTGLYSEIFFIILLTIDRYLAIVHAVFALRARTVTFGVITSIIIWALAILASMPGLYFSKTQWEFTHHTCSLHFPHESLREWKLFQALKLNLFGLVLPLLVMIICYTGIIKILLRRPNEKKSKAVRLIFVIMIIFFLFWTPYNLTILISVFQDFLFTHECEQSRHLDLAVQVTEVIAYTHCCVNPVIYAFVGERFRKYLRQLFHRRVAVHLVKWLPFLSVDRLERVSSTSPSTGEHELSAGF

[3] = molecular target: T2, CC CKR1, stably expressed on HEK 293 …; assay: heterologous competition against ^125I-RANTES on CC CKR1 cells, 37° C.
[4] = molecular target: T2, CC CKR1, stably expressed on HEK 293 …; assay: homologous competition against ^125I-MIP-1α on CC CKR1 cells
[5] = molecular target: T2, CC CKR1, stably expressed on HEK 293 …; assay: homologous competition against ^125I-MIP-1α; reference CCR5.1 cells
[6] = molecular target: B4; assay: radioligand binding to intact transfected HEK 293 cells, 0.2 nM ^125I-chemokine
[7] = molecular target: B1; assay: as above
[8] = molecular target: B5; assay: as above
[9] = molecular target: T2, CC CKR1, stably expressed on HEK 293 …; assay: radioligand binding at 37° C. to CC CKR1-transfected HEK 293 cells
[10] = molecular target: T1, CC chemokine receptor 5 (CCR5), clone …; assay: homologous competition against ^125I-MIP-1β; reference CC CKR1 cells
[11] = molecular target: T2, CC CKR1, stably expressed on HEK 293 …; assay: homologous competition against ^125I-MIP-1β on CC CKR1 cells
[12] = molecular target: T1, CC chemokine receptor 5 (CCR5), clone …; assay: homologous competition against ^125I-MIP-1β on CCR5.1 cells
[13] = molecular target: T2, CC CKR1, stably expressed on HEK 293 …; assay: radioligand binding at 37° C. to CC CKR1 cells

Binder B1 has an IC50 [1] of roughly 100 nM, a Ki [2] of 10 nM and an IC50 [3] of roughly 20 nM. The IC50 [4] was roughly 5 nM and the “fold more effective competition on CC CKR1 than on CCR5.1” value [5] was 20 fold.

B2: CC CKR2B, stably expressed on HEK 293 cells (receptor)
chain: MLSTSRSRFIRNTNESGEEVTTFFDYDYGAPCHKFDVKQIGAQLLPPLYSLVFIFGFVGNMLVVLILINCKKLKCLTDIYLLNLAISDLLFLITLPLWAHSAANEWVFGNAMCKLFTGLYHIGYFGGIFFIILLTIDRYLAIVHAVFALKARTVTFGVVTSVITWLVAVFASVPGIIFTKCQKEDSVYVCGPYFPRGWNNFHTIMRNILGLVLPLLIMVICYSGILKTLLRCRNEKKRHRAVRVIFTIMIVYFLFWTPYNIVILLNTFQEFFGLSNCESTSQLDQATQVTETLGMTHCCINPIIYAFVGEKFRRYLSVFFRKHITKRFCKQCPVFYRETVDGVTSTNTPSTGEQEVSAGL
notes: also called CCR2b
B2: no binding [6]; no binding [7]; no binding [8].

B3: MCP-3 (ligand)
chain: not shown
notes: also called unlabeled MCP-3
B3: binds [9].

In the case of B4, the “fold more effective competition on CCR5.1 than on CC CKR1” value [10] is reported as roughly 2 fold, the IC50 [11] is reported as roughly 200 nM and the IC50 [12] is reported as roughly 100 nM.

B5: binds [13].
